± gives the uncertainty stated by the source.
Assay: self-splicing fitness, log relative to wild type (ln ratio); higher = more splicing; Tetrahymena group I intron in knt gene, E. coli kanamycin selection, DiMSum; sequences stand for … in CUCUCU…GGAGGGAAAAGUUAUCAGGCAUGCACCUGGUAGCUAGUCUUUAAACCAAUAGAUUGCAUCGGUUUAAAAGGCAAGACCGUCAAAUUGCGGGAAAGGGGUCAACAGCCGUUCAGUACCAAGUCUCAGGGGAAACUUUGAGAUGGCCUUGCAAAGGGUAUGGUAAUAAGCUGACGGACAUGGUCCUAACCACGCAGCCAAGUCCUAAGUCAACAGAUCUUCUGUUGAUAUGGAUGCAGUUCACAGACUAAAUGUCGGUCGGGGAAGAUGUAUUCUUCUCAUAAGAUAUAGUCGGACCUCUCCUUAAUGGGAGCUAGCGGAUGAAGUGAUGCAACACUGGAGCCGCUGGGAACUAAUUUGUAUGCGAAAGUAUAUUGAUUAGUUUUGGAGUACUCGUGGUCG
Procedure, shortened: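 The eight P1ex-region nucleotides of an intron in the knt kanamycin-resistance gene on pET-22b(+) were all randomised and the library put into E. coli BL21(DE3). Six replicate transformations were grown overnight at 37°C or 30°C on LB agar with or without 25 μg/mL kanamycin, together with 100 μg/mL carbenicillin, 50 μM IPTG and 0.2% rhamnose. Colonies were pooled and amplicon-sequenced on an Illumina HiSeq 2500. Fitness from DiMSum is the error-weighted combination of wild-type-normalised replicate fold changes, kanamycin over none.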

| Sequence | self-splicing fitness (ln) (30 °C) | self-splicing fitness (ln) (37 °C) |
| --- | --- | --- |
| UCAGAGCAAUAUUACGAAAU | -3.56 ± 0.32 | -2.11 ± 0.46 |
| UCAGAGCAAUAUUACGAAGA | – | -2.32 ± 0.42 |
| UCAGAGCAAUAUUACGAAUC | -2.45 ± 0.42 | – |
| UCAGAGCAAUAUUACGAGAU | -3.74 ± 0.33 | -2.09 ± 0.37 |
| UCAGAGCAAUAUUACGAGCU | -2.68 ± 0.38 | -1.58 ± 0.29 |
| UCAGAGCAAUAUUACGAUUC | – | -1.19 ± 0.41 |
| UCAGAGCAAUAUUACGCACG | -3.39 ± 0.29 | -1.37 ± 0.21 |
| UCAGAGCAAUAUUACGCCAA | -2.84 ± 0.25 | -1.74 ± 0.29 |
| UCAGAGCAAUAUUACGCCUA | -2.28 ± 0.25 | -1.61 ± 0.26 |
| UCAGAGCAAUAUUACGCGAC | -3.71 ± 0.42 | – |
| UCAGAGCAAUAUUACGCGAG | -2.24 ± 0.12 | -1.06 ± 0.13 |
| UCAGAGCAAUAUUACGCGGC | – | -3.08 ± 0.4 |
| UCAGAGCAAUAUUACGGCAU | -3.07 ± 0.33 | -1.87 ± 0.29 |
| UCAGAGCAAUAUUACGGCGG | -1.41 ± 0.13 | 0.0537 ± 0.13 |
| UCAGAGCAAUAUUACGGCUC | -4.58 ± 0.34 | -3.36 ± 0.25 |
| UCAGAGCAAUAUUACGGCUG | -2.49 ± 0.19 | -0.448 ± 0.2 |
| UCAGAGCAAUAUUACGGUAG | -3.45 ± 0.24 | -2.39 ± 0.27 |
| UCAGAGCAAUAUUACGGUCA | -1.72 ± 0.18 | -2.42 ± 0.32 |
| UCAGAGCAAUAUUACGUAAA | -2.65 ± 0.15 | -1.95 ± 0.25 |
| UCAGAGCAAUAUUACGUCGC | -3.79 ± 0.37 | -2.41 ± 0.35 |
| UCAGAGCAAUAUUACGUGAG | -0.959 ± 0.054 | -0.838 ± 0.081 |
| UCAGAGCAAUAUUACGUUAC | -3.21 ± 0.37 | -1.55 ± 0.29 |
| UCAGAGCAAUAUUACGUUUA | -3.02 ± 0.25 | -2.6 ± 0.23 |
| UCAGAGCAAUAUUACGUUUG | -4.06 ± 0.24 | -2.36 ± 0.26 |
| UCAUAGCAAUAUUACGAAAC | -2.6 ± 0.25 | – |

| Sequence | self-splicing fitness (ln) (30 °C) | self-splicing fitness (ln) (37 °C) |
| --- | --- | --- |
| UCAUAGCAAUAUUACGACCU | -2.73 ± 0.39 | -0.81 ± 0.26 |
| UCAUAGCAAUAUUACGAGGC | -2.86 ± 0.35 | -1.44 ± 0.2 |
| UCAUAGCAAUAUUACGAGUG | -1.8 ± 0.11 | -0.999 ± 0.11 |
| UCAUAGCAAUAUUACGAUAA | -1.71 ± 0.21 | -0.636 ± 0.19 |
| UCAUAGCAAUAUUACGCCUG | -0.427 ± 0.085 | -0.133 ± 0.11 |
| UCAUAGCAAUAUUACGCGGA | -2.71 ± 0.18 | -0.822 ± 0.11 |
| UCAUAGCAAUAUUACGCUCA | -1.82 ± 0.15 | -0.493 ± 0.15 |
| UCAUAGCAAUAUUACGCUGU | -2.91 ± 0.17 | -1.95 ± 0.24 |
| UCAUAGCAAUAUUACGGACU | -2.63 ± 0.18 | -3.18 ± 0.43 |
| UCAUAGCAAUAUUACGGGAC | -2.96 ± 0.27 | -3.97 ± 0.39 |
| UCAUAGCAAUAUUACGGGGU | -4.08 ± 0.27 | -1.67 ± 0.18 |
| UCAUAGCAAUAUUACGGUAU | – | -2.43 ± 0.28 |
| UCAUAGCAAUAUUACGUAAG | -1.66 ± 0.1 | -1.91 ± 0.15 |
| UCAUAGCAAUAUUACGUAGC | -4.12 ± 0.3 | -0.156 ± 0.15 |
| UCAUAGCAAUAUUACGUAGG | -1.08 ± 0.074 | -1.56 ± 0.096 |
| UCAUAGCAAUAUUACGUAUA | -2.54 ± 0.34 | -2.13 ± 0.28 |
| UCAUAGCAAUAUUACGUAUC | -4.44 ± 0.33 | -3.23 ± 0.24 |
| UCAUAGCAAUAUUACGUCCU | -3.7 ± 0.25 | -1.18 ± 0.14 |
| UCAUAGCAAUAUUACGUGCU | -2.6 ± 0.17 | -1.99 ± 0.11 |
| UCAUAGCAAUAUUACGUGGA | -2.02 ± 0.11 | -1.24 ± 0.093 |
| UCAUAGCAAUAUUACGUGUA | -2.35 ± 0.13 | -1.84 ± 0.14 |
| UCAUAGCAAUAUUACGUUGC | -3.86 ± 0.31 | -2.31 ± 0.32 |
| UCCAAGCAAUAUUACGACCC | -3.47 ± 0.22 | -1.98 ± 0.17 |
| UCCAAGCAAUAUUACGACGA | -0.735 ± 0.07 | 0.11 ± 0.096 |
| UCCAAGCAAUAUUACGACGU | -0.266 ± 0.068 | 0.0245 ± 0.073 |

| Sequence | self-splicing fitness (ln) (30 °C) | self-splicing fitness (ln) (37 °C) |
| --- | --- | --- |
| UCCAAGCAAUAUUACGAUCU | -3.08 ± 0.26 | -2.56 ± 0.22 |
| UCCAAGCAAUAUUACGAUGA | -0.0226 ± 0.05 | 0.466 ± 0.071 |
| UCCAAGCAAUAUUACGAUUG | -4.13 ± 0.33 | -1.78 ± 0.2 |
| UCCAAGCAAUAUUACGCAAG | -3.86 ± 0.32 | -2.51 ± 0.26 |
| UCCAAGCAAUAUUACGCACU | -2.28 ± 0.15 | -0.918 ± 0.14 |
| UCCAAGCAAUAUUACGCAUA | -1.07 ± 0.096 | -0.213 ± 0.087 |
| UCCAAGCAAUAUUACGCCGA | -0.365 ± 0.14 | 0.242 ± 0.13 |
| UCCAAGCAAUAUUACGCCGU | -0.285 ± 0.13 | -0.0434 ± 0.19 |
| UCCAAGCAAUAUUACGCGAA | -2.43 ± 0.13 | -0.748 ± 0.12 |
| UCCAAGCAAUAUUACGCGAC | -2.44 ± 0.23 | – |
| UCCAAGCAAUAUUACGCUCA | -1.03 ± 0.11 | -0.393 ± 0.13 |
| UCCAAGCAAUAUUACGGAGG | -4.42 ± 0.27 | -2.81 ± 0.29 |
| UCCAAGCAAUAUUACGGCCA | -0.223 ± 0.11 | 0.127 ± 0.11 |
| UCCAAGCAAUAUUACGGGCA | -0.884 ± 0.06 | 0.244 ± 0.074 |
| UCCAAGCAAUAUUACGGGCC | -4.08 ± 0.32 | -1.72 ± 0.25 |
| UCCAAGCAAUAUUACGGUUA | -0.451 ± 0.066 | 0.0448 ± 0.068 |
| UCCAAGCAAUAUUACGUAAA | -1.12 ± 0.089 | -0.00199 ± 0.11 |
| UCCAAGCAAUAUUACGUACG | -3.53 ± 0.19 | -1.76 ± 0.16 |
| UCCAAGCAAUAUUACGUAGC | -3.38 ± 0.14 | -1.38 ± 0.11 |
| UCCAAGCAAUAUUACGUCCA | -1.56 ± 0.11 | -0.691 ± 0.11 |
| UCCAAGCAAUAUUACGUCGU | -0.899 ± 0.073 | -0.178 ± 0.085 |
| UCCAAGCAAUAUUACGUCUG | -4 ± 0.23 | -3.01 ± 0.2 |
| UCCAAGCAAUAUUACGUGGC | -3.9 ± 0.27 | -2.97 ± 0.33 |
| UCCAAGCAAUAUUACGUGGU | -2.96 ± 0.1 | -1.45 ± 0.092 |
| UCCAAGCAAUAUUACGUUAC | -4.16 ± 0.26 | -3.2 ± 0.32 |

| Sequence | self-splicing fitness (ln) (30 °C) | self-splicing fitness (ln) (37 °C) |
| --- | --- | --- |
| UCCAAGCAAUAUUACGUUCA | -1.4 ± 0.13 | -0.51 ± 0.11 |
| UCCAAGCAAUAUUACGUUCU | -2.62 ± 0.1 | -3.9 ± 0.29 |
| UCCAAGCAAUAUUACGUUUC | -3.37 ± 0.2 | -2.76 ± 0.26 |
| UCCAAGCAAUAUUACGUUUU | -4 ± 0.13 | -2.91 ± 0.14 |
| UCCCAGCAAUAUUACGAAAC | -3.52 ± 0.44 | -1.93 ± 0.46 |
| UCCCAGCAAUAUUACGAAGA | -0.348 ± 0.084 | -0.266 ± 0.09 |
| UCCCAGCAAUAUUACGACGG | -2.95 ± 0.15 | -2.15 ± 0.14 |
| UCCCAGCAAUAUUACGAGAG | -3.41 ± 0.29 | -2.14 ± 0.21 |
| UCCCAGCAAUAUUACGAGGG | -3.14 ± 0.17 | -3.02 ± 0.21 |
| UCCCAGCAAUAUUACGCCCG | -3.3 ± 0.21 | -2.65 ± 0.31 |
| UCCCAGCAAUAUUACGCGAG | -3.41 ± 0.14 | -2.91 ± 0.2 |
| UCCCAGCAAUAUUACGCGCC | -3.11 ± 0.35 | -1.29 ± 0.21 |
| UCCCAGCAAUAUUACGGCCG | -3.44 ± 0.27 | -2.02 ± 0.32 |
| UCCCAGCAAUAUUACGGCCU | -2.43 ± 0.16 | -0.901 ± 0.17 |
| UCCCAGCAAUAUUACGGUAC | -3.29 ± 0.2 | -1.71 ± 0.17 |
| UCCCAGCAAUAUUACGUGAG | -1.52 ± 0.08 | -0.669 ± 0.083 |
| UCCGAGCAAUAUUACGAUAU | -1.5 ± 0.22 | -2.46 ± 0.41 |
| UCCGAGCAAUAUUACGCAAG | -3.27 ± 0.26 | -1.77 ± 0.32 |
| UCCGAGCAAUAUUACGCCGA | -1.56 ± 0.23 | -0.047 ± 0.16 |
| UCCGAGCAAUAUUACGCGAU | – | -2.3 ± 0.35 |
| UCCGAGCAAUAUUACGCGUC | -3.74 ± 0.37 | -1.53 ± 0.26 |
| UCCGAGCAAUAUUACGCGUG | -2.6 ± 0.12 | -1.3 ± 0.1 |
| UCCGAGCAAUAUUACGGACC | -2.53 ± 0.28 | -1.47 ± 0.36 |

— the supplement of paper PMC7877785
